Experimental findings from patent publication US20090162366A1 (KIRIN PHARMA, published 2009) are described below.

B1: C40G1 (antibody, V domains shown)
VH: QLQLQESGPGLVKPSETLSLTCTVSGGSISSSFYYCGWIRQPPGKGLEWIGSIYYRGSTYYNPSLKSRVTISVDTSKNQFSLKLSSVTAADTAVYYCARRVTMVRGVKGDYFDYWGQGTLVTVSS
VL: DIQMTQSPSSLSASVGDRVTITCRASQGISSWLAWYQQKPEKVPKSLIYAASSLQSGVPSRFSGSGSGTDFTLTISSLQPEDFATYYCQQYNYYPLTFGGGTKVEIKR
B2: N547 (antibody, V domains shown)
VH: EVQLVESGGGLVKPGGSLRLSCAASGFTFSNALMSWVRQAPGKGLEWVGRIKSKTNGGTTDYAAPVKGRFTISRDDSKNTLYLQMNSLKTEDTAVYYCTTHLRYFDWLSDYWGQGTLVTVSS
VL: QSVLTQPPSMSAAPGQKVTISCSGSSSNIGNNYISWYQQLPGTAPKVLIYDNNKRPSGIPDRFSGSKSGTSATLGITGLQTGDEADYYCGSWDSSLSAGVFGTGTKVTVLG
B3: L66 (antibody, V domains shown)
VH: EVQLVESGGGVVRPGGSLRLSCAASGFTFDDYGMSWVRQAPGKGLEWVSGINWNGGSTGYADSVKGRFTISRDNAKNSLYLQMNSLRAEDTALYYCARDRVTMVRGVIMDYYGMDVWGQGTTVTVSS
VL: QTVVTQEPSLTVSPRGTVTLTCSSSTGAVTSGYYPGWFQLKPGQAPMSLIYSARKKHSWTPARFSGSLLGGKAALTLSGVQPEDEAEYYCLLYYGGAYVFGTGTKVTVLG
B4: C40G4 (antibody, V domains shown)
VH: B1 VH
VL: B1 VL

Where only a bound is given, the exact number is not on record here.

One may read the EC50 as the midpoint of the concentration-response curve. Read a low EC50 as a more potent agent.

T1 sequence (P06821 whole entry): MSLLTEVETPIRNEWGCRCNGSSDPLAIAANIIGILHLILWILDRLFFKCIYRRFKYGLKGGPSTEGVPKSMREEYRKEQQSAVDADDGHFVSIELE

One assay has as its target T1, M2 expressed on MDCK cells infected with influenza A/PR/8/34 (influenza A virus A/PR/8/34, UniProt P06821 1-97).
T1 construct: whole, on cells
Description: cell ELISA, A/PR/8/34-infected MDCK, Ab 1 µg/ml, competitor M2 peptide 20 µg/ml.
In the case of B1, the OD450 with competitor amounted to 0.195 OD450.
Take B2: the OD450 with competitor came to 0.062 OD450.
Take B3: the OD450 with competitor was determined as 0.113 OD450.

A further assay concerns the target T1, M2 expressed on MDCK cells infected …. Description: cell ELISA, A/PR/8/34-infected MDCK. On the technique in general: An ELISA detects its analyte on a solid surface through an enzyme-linked reagent.
Regarding B1, the “fold greater reactivity than F1 and F2” value was over 100 fold.
On to B2, for which the “fold greater reactivity than F1 and F2” value was over 100 fold.
Consider B3, for which the “fold greater reactivity than F1 and F2” value is over 100 fold.

Another assay shares this target. Description: cell ELISA on infected MDCK cells.
Molecule B1 showed an EC50 of 0.183 µg/mL.
For B4, the EC50 worked out at 0.301 µg/mL.
For the molecule B2, the midpoint of the response, the EC50, lay at 0.104 µg/mL.
Molecule B3 registered an EC50 of 0.117 µg/mL.

The target is the same in the next assay. The assay is described as follows: cell ELISA, A/PR/8/34-infected MDCK, Ab 1 µg/ml, no peptide.
The molecule B1 showed an OD450 of 0.799 OD450.
B2 returned an OD450 of 0.504 OD450.
On to B3, for which the OD450 was 0.931 OD450.
